Measurements reported in the RNAGym collection of RNA variant scans (doi:10.1021/acssynbio.7b00057).

B1: Pistol ribozyme (parent)
chain: GGGUCGUUGUUCCAUAAUCGCGUGGAUAUGGCACGCAAGUUUCUACCGGGCACCGUAAAUGUCCGACUGGAGCCGUUCGGGCGGCUAUAAACAGACCUCAGGCCCGAAGCGUGGCGGCACCUGCCGCCGGUGGUAAAAAAGAUCGGAAGAGCACACGUCU

Variants of: B1
Test: aptazyme ON/OFF ratio, guanine; higher = stronger switching; co-transcriptional cleavage with and without guanine

| Variant | aptazyme ON/OFF ratio |
| --- | --- |
| U7G G9C U10G U11C C13U | 1.15 |
| U7G G9C U10G U11C C13G | 1.16 |
| U7C U8A G9U U10A C12A C13U | 1.22 |
| U7A U8C G9U U11C C13U | 1.05 |
| U8C G9A U10A C13G | 1.05 |
| U7A U10A C12A | 1.31 |
| U7C U8C G9U U10A U11C C12G C13A | 1.17 |
| U8G U10G C12A C13G | 1.19 |
| U7C U8G G9A U10C U11A C12U C13U | 1.05 |
| U8A G9A U10C U11A C12A C13A | 1.16 |
| U8G U10A U11A C12U | 1.28 |
| U7G U8C G9U U10G U11G C12G | 1.31 |
| U7G G9A U10G U11G C12A | 1.1 |
| U7G U8A U10G C13U | 1.29 |
| U7A U8G U11G C12A | 1.31 |
| U7A U8G U10C U11C C12U C13U | 1.17 |
| U7C U8C G9A C13U | 1.83 |
| U7C U8A G9U U10G C12A C13G | 1.13 |
| U7G U8C G9A C12A C13U | 1.06 |
| U7G U8G U10C C12G C13A | 1.4 |
| U7A U8G G9C U10A U11C C12G | 1.22 |

| Variant | aptazyme ON/OFF ratio |
| --- | --- |
| U7C U8A G9U U10A U11C C12A C13U | 1.22 |
| U7C U8G U10A U11C C12G | 1.18 |
| U8A U11A C12U C13G | 1.21 |
| U7A U8C G9A U10G U11G C13G | 1.15 |
| U7C U8C G9A U11C C12A C13G | 1.19 |
| U7G U8A G9C U11A C12G C13G | 1 |
| U7G U8A G9C U10A C12A C13U | 1.06 |
| U7G G9U U10C U11A C13A | 1.34 |
| U7G U8C G9A U10C U11A C12A | 1.33 |
| U7C U8C G9A U11C C12U C13G | 1.08 |
| U7C U10C C12U | 3.58 |
| U7C G9A U10A U11A C12U C13A | 1.18 |
| U7A G9C U10A U11A C12G C13A | 1.04 |
| G9A U10C U11G C13G | 1.18 |
| G9C U11G C12U C13U | 1.41 |
| G9A U10G C12A | 1.53 |
| U7A U8G G9U U10G U11C C12U | 1.04 |
| U7A U11G C12U | 1.22 |
| G9U U10G U11C | 1.28 |
| U7G G9C C12U | 1.79 |
| U7G U8C G9C U11C C12U | 1.78 |

| Variant | aptazyme ON/OFF ratio |
| --- | --- |
| U8G G9U U11C C12U | 1.04 |
| U8G G9A U10C U11C C12A | 1.08 |
| U8G U10G U11A | 1.26 |
| U7A G9A U10G C12G C13A | 1.21 |
| U7C U8G G9A U10G U11G | 1.42 |
| U7G U8G C12A C13U | 1.57 |
| U7G U11C C13U | 1.07 |
| U7G U11C C13G | 1.08 |
| U7C G9U U11G C12U C13G | 1.11 |
| U7G G9U U10C U11C C12G C13G | 1.2 |
| U8C U10A C12G | 1.21 |
| U7G U8A G9C U10G | 1.1 |
| U8A C13G | 1.11 |
| G9A U10A C12A C13A | 1.61 |
| U7C U8A G9C U11A | 1.05 |
| U8A U10C U11G C12G C13U | 1.14 |
| U7G U8A G9U U10C U11A C13U | 1.08 |
| U8C G9A U10A U11G C12U | 1.26 |
| U7G U8G G9U U10A U11A C13A | 1.14 |
| U7A U8A G9U U11A C12A C13U | 1.22 |
| U7A U8C G9C C12G | 1.09 |

| Variant | aptazyme ON/OFF ratio |
| --- | --- |
| U7C U8A G9A U10G U11G C12A | 1.11 |
| U7C U8C G9C U10G | 1.61 |
| U7C G9A U10C | 4.55 |
| G9U C13A | 1.34 |
| U7G U8G G9C U10G C13A | 1.31 |
| U7A U8C U10G U11G C12G | 1.04 |
| U7C G9A U10A U11A | 1.19 |
| U7C U8C G9C U11G C12G C13A | 1.1 |
| U8G G9A U11C C13U | 1.06 |
| U7C U8A G9U U11G C13U | 1.17 |
| U7A U8G U11A C12A | 1.43 |
| U7G G9C U10G U11G C13G | 1.21 |
| U7C U8G G9A U11C C12U C13A | 1.09 |
| U7G G9U U10C U11G C12G C13G | 1.12 |
| U7C G9A U10C C12U C13A | 1.2 |
| U7G U8A U10A C12A C13U | 1.08 |
| U7C G9A U11C C12A | 1.2 |
| U7C G9C U10C U11C C12U C13G | 1.02 |
| U7A U8G G9A U10C C13A | 1.03 |
| G9U U10C U11G C12U C13A | 1.46 |
| U7G U10C U11G C13U | 1.14 |
